We go through 41 sequences from the nanobody polyreactivity screen of Harvey et al. (2022).

The nature of this series: yeast display, Sf9 membrane polyspecificity reagent, FACS + sequencing; frameworks hold sequencing errors. An outline of the steps:
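After 36–48 hours of galactose induction, yeast (Saccharomyces cerevisiae BJ5465) displaying a synthetic nanobody library were stained at 4 °C for 1 hour with 10% biotinylated, detergent-solubilized Sf9 membrane reagent. Streptavidin microbeads enriched the stained cells before FACS sorting into low and high (top ~1%) gates on anti-HA and streptavidin fluorescence. Each clone's polyreactivity label reflects its gate of origin.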
As for “QVQLVESGGGLVQAGGSLRLSCAASGSTLYAYAMGWYRQAPGKERELVAGISSSGARTYYADSVKGRFTISRDNAKITVYLQMNSLKPEDTAVYYCAALAPVGTSKSYGYWGQGTQVTVSS”, the “polyreactivity (PSR sort gate)” value is reported as “high polyreactivity”.
The value for “QVQLVESGGGLVQAGGSLRLSCAASGRTFNYYAMGWYRQAPGKERELVAAISGSGGRTYYADSVKGRFTISRDNAKNTVYLQMNSLKPEDTAVYYCNADVGKYPYAHTYWARRYYYLGQGTQVTVSS” was “high polyreactivity”; that for “QVQLVESGGGLVQAGGSLRLSCAASGSTYPYYAMGWYRQAPGKERELVAAITSSTGRTYYADAVKGRFTISRDNAKNTVYLQMNSLKPEDSAVYYCATYSTSVAYHLYYWGQGTQVTVSS” was “low polyreactivity”.
The value for “QVQLVESGGGLVQAGGSLRLSCAASGRIFGGYTMGWYRQAPGKERELVAAITGSGGRTYYADSVKGRFTISRDNAKNTVYLQMNSLKPEDTAVYYCNTVYRYRYYWGQGTQVTVSS” was “high polyreactivity”; that for “QVQLVESRGGLVQAGGSLRLSCAASGFTFPFYAMGSYRQAPGKERELVAAISISGGSTHYADSVKGRFTISRDNAKNTVYLQMNSLKPEDTAVYYCAAEYGVVIYIDGWYPTLHEYYYSGQGTQVTVSS” was “high polyreactivity”.
The value for “QVQLVESGGGLVQAGGSLRLSCAASGRIFFRNVMGWYRQAPGKERELVATITSGGRTYYADSVKGRFTISRDNAKNTVYLQMNSLKPEDTAVYYCAAKRYLHRREYWGQGTQVTVSS” was “high polyreactivity”; that for “QVQLVESGGGLVQAGGSLRLSCAASGRTFDYNAMGWYRPAPGKERELVAAISRSGGSTYYADSVKGRFTISRDNAKNTVYLQMNRLKPEDTAVYYCAADNYYLFALYEYGYWGQGTQVTVSS” was “high polyreactivity”.
On to “QVQLVESGGGLVQAGGSLRLSCAASGRIFTPYAMGWYRQAPGKERELVAGISSSGGSTYYADSVKGRFTISRDNAKNTVYLQMNSLKPEDTAVYFCNKRYRGTPRSYDYWGQGTQVTVSS”, for which the “polyreactivity (PSR sort gate)” value is reported as “high polyreactivity”.
The value for “QVQLVESGGGIVQAGGSLRLSCAASGSIFVHNDMGWYRQAPGKERELVARINTGGGTNYADSVKGRFTISRDNAKNTVYLEMNSLKPEDTAVYYCATDGDRYDHYFTDPEFDYWGQGTQVTVSS” was “low polyreactivity”.
The value for “QVQLVESGAGLVQAGGSLRLSCAASGIIIPYYVMGRYRQAPGKEMELVAAISGSGGSTYYADSVKGRFTISRDNAKYTVYLQLNSLKPEAPAVYYCARYYYQFGGYEYWGQGTQVTVSS” was “high polyreactivity”.
The value for “QVHLVETGGGLVQAGGSLRLSCAASGSIFFVYAMGCYRPAPGKERELVAAISNDGSTNYADSVKGRFTISRDNAKNTVYLQMNCLIPEDTAVYYCAKDTRTKYDYWGQGTQVTVSS” was “low polyreactivity”.
Turning to “QVQLQESGGGLVKAGGSLRLSCAASGNISNHNDMGWYRQAPGKEREFVAGITAGGITNYADSVKGRFTISRDNAKNTVYLLMKRLKPEDTAVYYCAAYPDYAKSYGFWGQGTQATVSS”, the “polyreactivity (PSR sort gate)” value is recorded as “low polyreactivity”.
For the sequence “QVQLVESGGGLVQAGGSLRLSCAASGSIFEGNGMGWYIQAPGKERELVAAITFRSGSTYYADSVKGRFTISLDNAKNTVYLQMNSLKPEDTAVYYCAADEYYQVSAYDYWGQGTQVTVSS”, the “polyreactivity (PSR sort gate)” value is on record as “low polyreactivity”.
Consider “QVQLVESGGGLVQAGGSLRLSCAASGLIFSYYAMGWYRQAPGKERELVAAISRGGSTNYADSVKGRFTISRDNAKNTVNLQMNSLKPEDTAVYYFAAGRFAYHDDYWGQGTQVTVSS”, for which the “polyreactivity (PSR sort gate)” value was “high polyreactivity”.
On to “QVQLVESGGGLVQAGGSLRLSCAASGRTFWSNAMGWYRQAPGKERELVAAISGGARTNYADSVKGRFTISRDNAKNTVYLQMNSLKPEDTAVYYCAATPRYWQSRYDYWGQGTQVTVSS”, for which the “polyreactivity (PSR sort gate)” value was “high polyreactivity”.
The value for “QVQLVESGGGLVQAGGSLRLSCAASGITFTGYAMGWYRQAPGKERELVAAITWSSGSTYYADSVKGRFTISRDNAKNTVYLQMNSLKPEDTAVYYCNAGYWYDGPDYIPEYDYWGQGTQVTVSS” was “low polyreactivity”.
In the case of “QFQLVESGGGLVQAGGSLRLSCAASGLIFPKYAMGWYRQAPGKEREFVAAISGRGGTTYYADSVKGRFTISRDNAKNTVYLQMNSLKPEDTAVYYCAAGGPWANIYGNGYWGQGTQVTVSS”, the “polyreactivity (PSR sort gate)” value was “high polyreactivity”.
The value for “QVQLVESGGGLVQAGVSLRLSCAASGITLYRYAMGWYRQATGKERELVADISSGGGTTYYADSVKGRFTISRDNAKNTVYLQMNSLKPEDTAVYYCAADYGFRYPLYDYWGQGTQVTVSS” was “low polyreactivity”.
Consider “QVQLVESGGGLVQAGGSLRLSCAASGRIFNSYGMGWYRHAPGKEREFVAAISRSGGITYYADSVKGRFTISRDNAKNTVYLQMNSLKPEDSAVYYCAADYYWRRQRQVGYWGQGTQVTVSS”, for which the “polyreactivity (PSR sort gate)” value is recorded as “high polyreactivity”.
The value for “QVQLVESGGGLVQAGGSLRLSCAATGRIFGQYAMGWYRQAPGKESDFVAVISKRGGRTYYADSVMGRFTISRDNAKNTVYLQMNSLKPEDTAVYYCAAEYYPHDGAQYEYWGQGTQVTVSS” was “high polyreactivity”; that for “QVQLVESGGGLVQAGGSLRLSCAASGITFAWYAMGWYRQAPGKERELVAAIDDRGGSTYYADSVKGRFTISRDNAKNTVYFQMNSLKPEDTAVYYCNADTKSYEPYRLDYWGQGTQVTVSS” was “low polyreactivity”.
The value for “QVQLVESGGGLVQAGGSLRLSCAASGFTFKTYVMGWYRQAPGKERELVAAISRRGGSTHYADSVKGRFTISRDNAKNTVYLQMNSLKPEDTAVYYCARRWYSTWWYGYWGQGTQVTVSS” was “high polyreactivity”.
As for “QVQLVESGGGLFQAGGSLRLSCAANGSIFDYYAMGWYRQSPGKERELVAAITRSGVRTYYADSVKGRFTISRDNAKNTVYLQMNSMKPEDTAVYYCGAVYYPLSFDNDYWGQGTQVTVSS”, the “polyreactivity (PSR sort gate)” value is on record as “high polyreactivity”.
The value for “QVQLVESGGGLVQAGGSLRLSCDASGFTFYGYAMGWYRQAPGKERELVAAISGNGARTYYADSVKGRFTISRDNAKNTVYLQMNSLKPEDTAVYYCNADPATWWRNKEDYWGQGTQVTVSS” was “high polyreactivity”; that for “QVQLVESGGGLVQAGGSLRLSCAASGTFYYNTMGCYRQAPGKERELVAAITSGGRTYADSVKGRFTISRDNAKNTVYLQMNSLKEEDTAVYYCAVDKPYPYRIIIWYEYDYWGQGNQVTVSS” was “low polyreactivity”; that for “QVQLVESGGGLVQARGSLRLSCAASGFTFSRYAMGWYRQAPGKERELVAAITRSGGSTYYADSVKGRFTISRDNAKNTVYLQMNSLKPEDTAVYYCAKRAASGFRWDSGYWGQGTQVTVSS” was “high polyreactivity”.
For “QVQLVESGGGLVQAGGSLRLSCAASGRIFSYNAMGWYRQAPGKERELVAAITGGGSTNYADSVQGRFTISRDNAKNTVYLHMTSLKPEDTAVYYCAADARGYGYYYWGQGTQVTVSS”, the “polyreactivity (PSR sort gate)” value is recorded as “high polyreactivity”.
On to “QVQLVESGGGLVQAGGSLRLSCAASGRTFWRNTMGWYRQAPGKQREFVAASTFSGVRTYYADSVKGRFTISRDNAKNTVYLQMNSLKPEDTAVYYCAKSRQYIGGFDYWGQGTQVTVSS”, for which the “polyreactivity (PSR sort gate)” value is given as “high polyreactivity”.
Take “QVQLVESGGGLVQAGGSLRLSCAASGRIFSPNAMGWYRQAPGKERELVAAISWRGRTYYADSVKGRFTISRDNAKNTVYLQMNSLKPEDTAVYYCNAPYKYVRGDYWGQGTQVTVSS”: the “polyreactivity (PSR sort gate)” value is on record as “high polyreactivity”.
The value for “QVQLVESGGGLGQAVGRLRLSCAASGGTFPQYAMGWYRQAPGKEREFVADITSRGGTTYYADSVQGRFTISRDNAKNTVYLQMNSLKPEDTAVYYCAADNPADWWGLDYWGQGTQVTVSS” was “low polyreactivity”; that for “QVQLVESGGALVQAGGRLRLSCAASGRTFRAYAMGWYRQAPGKERELVAAITSGGSTYYADSVKGRFTISRDNAKNTVYLQMNSLKPEDTEVYYCNRRGWSRTHQYDYWGQGTQVTVSS” was “high polyreactivity”; that for “QVQLVETGGGLVQAGGSLRLSCAASGSTFSRNAMGWYRQAPGKEREFVAAISWSGSSTYYADSVKGRFTISRDNEKNTVYLQMNSLKPEDTAVYYCAARETWYPYYWMGYWGQGAQVTVSS” was “high polyreactivity”.
The value for “QVQLVESGGGLVQAGGSLRFSCAASGSTFRPNAMGWYRPAPGKERELVAAISRSGVSTYYADSVKGRFTISRDNAKNTVYLQMNSLKPEDTAVYYCAAKLVVSYGQEYDYWGQGTQVTVSS” was “low polyreactivity”; that for “QVQLVESGGGLVQAGGSLRISCAASGRTFPCKAMGWYRQAPGKERELVATITWSSGRTHYADSVKGRFTISRDNAKNTVYLQMNSLKPEDSAVYYCAAKWIVAVVGFYYWGQGTQVTVSS” was “low polyreactivity”.
Regarding “QVQLVESGGGLVQAGGSLRLSCAASGFTFLYYTMGWYRQAPGKERELVAAISSGGRTTYADSVKGRFTISRDNAKNTVYLQMNSLKQEDTAVYYCAARYRTLDGEVDYWGQGTQVTVSS”, the “polyreactivity (PSR sort gate)” value was “high polyreactivity”.
The value for “QVHLVESGGGLVQAGGSLRLSCAASGSTFETNAMGWYRQSPGKERELVAAIRWSTGNTYYADSVKGRFTISRDNAKNTVYLQMNSLKPEDTAVYYCAAYKGKHYKEGYWGQGTQVTVSS” was “low polyreactivity”; that for “QVQLVESGGGLVQAGGSLRLSCAATGSIFYHYAMGWYRQAPGKERELVAAISGSGGSTYYADSVKGRFTISRDNAKNTVYLQMNSLKPEDTAVYYCAADTSRYHYSRYFFDSDYWGQGTQVTVSS” was “low polyreactivity”.
With “QVQLVESGGGLVQAGGSLRLSCAASGIIFRYYAMGWYRQAPGKERELVAAITSRGGSTYYADSVKGRFTISRDNAKNTVYLQMNSLKPEDTAVYYCATAYYYFSTSRADGEYWGQGTQVTVSS”, the “polyreactivity (PSR sort gate)” value is reported as “high polyreactivity”.
On to “QVQLVESGGGLVQAGGSLRLSCAASGRTFGSNAMGWYRQAPGKERELVAAISGRTDSTYYADSVKGRFTISRDNAKNTVYLQMNSLKPEDTAVFYCAADSGDVLYYYIRYNYWGQGTQVTVSS”, for which the “polyreactivity (PSR sort gate)” value is “low polyreactivity”.
The value for “QVQLVESGGGFDQAGGSLRLSCAACGSIFWSNAMGWYRQAPGKERELVAAISSGGSTYADSVKGRLTISRDNAKNTVYLQMNSLKPEDNAVYYCNADVLYGDCYRGGYWGQGTQVTVSS” was “low polyreactivity”; that for “QVQLVDSGGGFFQAGGSLRLSCAPSGITFVVYAMGWYRQAPGKERDLVAAITAGGSTYADSVKGRFTISRDNAKTTVYLQMNSLKPEDTAVYDCNTGLYLYVGLGDHDYWGQGTQVTVSS” was “low polyreactivity”.
